The record followed here is patent US6767887.

Data set [1] concerns the target T1, [Ala^2,Nle^14,Arg^30]-Ex-3-(1-30)-NH2.
T1 chain: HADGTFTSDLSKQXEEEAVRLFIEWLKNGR

For another data set, the target named is T2, GLP-1-(7-36)-NH2, P01275.
T2 chain: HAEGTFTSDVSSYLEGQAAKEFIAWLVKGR

B1: dipeptidyl peptidase IV (protein)
chain: MKTPWKVLLGLLGAAALVTIITVPVVLLNKGTDDATADSRKTYTLTDYLKNTYRLKLYSLRWISDHEYLYKQENNILVFNAEYGNSSVFLENSTFDEFGHSINDYSISPDGQFILLEYNYVKQWRHSYTASYDIYDLNKRQLITEERIPNNTQWVTWSPVGHKLAYVWNNDIYVKIEPNLPSYRITWTGKEDIIYNGITDWVYEEEVFSAYSALWWSPNGTFLAYAQFNDTEVPLIEYSFYSDESLQYPKTVRVPYPKAGAVNPTVKFFVVNTDSLSSVTNATSIQITAPASMLIGDHYLCDVTWATQERISLQWLRRIQNYSVMDICDYDESSGRWNCLVARQHIEMSTTGWVGRFRPSEPHFTLDGNSFYKIISNEEGYRHICYFQIDKKDCTFITKGTWEVIGIEALTSDYLYYISNEYKGMPGGRNLYKIQLSDYTKVTCLSCELNPERCQYYSVSFSKEAKYYQLRCSGPGLPLYTLHSSVNDKGLRVLEDNSALDKMLQNVQMPSKKLDFIILNETKFWYQMILPPHFDKSKKYPLLLDVYAGPCSQKADTVFRLNWATYLASTENIIVASFDGRGSGYQGDKIMHAINRRLGTFEVEDQIEAARQFSKMGFVDNKRIAIWGWSYGGYVTSMVLGSGSGVFKCGIAVAPVSRWEYYDSVYTERYMGLPTPEDNLDHYRNSTVMSRAENFKQVEYLLIHGTADDNVHFQQSAQISKALVDVGVDFQAMWYTDEDHGIASSTAHQHIYTHMSHFIKQCFSLP
B1: the “Substrate for DDP-IV” value in data set [1] is listed as “no proteolysis”; with GLP-1-(7-36)-NH2, P01275, 50% proteolysis.
